Measurements from article PMC4520773 (Journal of molecular biology, 2015).
“And” between values parts separate entries of the source, which are not always exact repeats. Identical values can stand only once.

Assays:
[1] = molecular target: T1, huntingtin exon 1-thioredoxin (TRX) fusion protein with 16 glutamines (Homo sapiens, UniProt P42858, strain); assay: small angle X-ray scattering
[2] = molecular target: T2, huntingtin exon 1-thioredoxin (TRX) fusion protein with 39 glutamines (Homo sapiens, UniProt P42858, strain); assay: SEC
T2 sequence (P42858 whole entry, looked up, change not shown, the tested form may be a part): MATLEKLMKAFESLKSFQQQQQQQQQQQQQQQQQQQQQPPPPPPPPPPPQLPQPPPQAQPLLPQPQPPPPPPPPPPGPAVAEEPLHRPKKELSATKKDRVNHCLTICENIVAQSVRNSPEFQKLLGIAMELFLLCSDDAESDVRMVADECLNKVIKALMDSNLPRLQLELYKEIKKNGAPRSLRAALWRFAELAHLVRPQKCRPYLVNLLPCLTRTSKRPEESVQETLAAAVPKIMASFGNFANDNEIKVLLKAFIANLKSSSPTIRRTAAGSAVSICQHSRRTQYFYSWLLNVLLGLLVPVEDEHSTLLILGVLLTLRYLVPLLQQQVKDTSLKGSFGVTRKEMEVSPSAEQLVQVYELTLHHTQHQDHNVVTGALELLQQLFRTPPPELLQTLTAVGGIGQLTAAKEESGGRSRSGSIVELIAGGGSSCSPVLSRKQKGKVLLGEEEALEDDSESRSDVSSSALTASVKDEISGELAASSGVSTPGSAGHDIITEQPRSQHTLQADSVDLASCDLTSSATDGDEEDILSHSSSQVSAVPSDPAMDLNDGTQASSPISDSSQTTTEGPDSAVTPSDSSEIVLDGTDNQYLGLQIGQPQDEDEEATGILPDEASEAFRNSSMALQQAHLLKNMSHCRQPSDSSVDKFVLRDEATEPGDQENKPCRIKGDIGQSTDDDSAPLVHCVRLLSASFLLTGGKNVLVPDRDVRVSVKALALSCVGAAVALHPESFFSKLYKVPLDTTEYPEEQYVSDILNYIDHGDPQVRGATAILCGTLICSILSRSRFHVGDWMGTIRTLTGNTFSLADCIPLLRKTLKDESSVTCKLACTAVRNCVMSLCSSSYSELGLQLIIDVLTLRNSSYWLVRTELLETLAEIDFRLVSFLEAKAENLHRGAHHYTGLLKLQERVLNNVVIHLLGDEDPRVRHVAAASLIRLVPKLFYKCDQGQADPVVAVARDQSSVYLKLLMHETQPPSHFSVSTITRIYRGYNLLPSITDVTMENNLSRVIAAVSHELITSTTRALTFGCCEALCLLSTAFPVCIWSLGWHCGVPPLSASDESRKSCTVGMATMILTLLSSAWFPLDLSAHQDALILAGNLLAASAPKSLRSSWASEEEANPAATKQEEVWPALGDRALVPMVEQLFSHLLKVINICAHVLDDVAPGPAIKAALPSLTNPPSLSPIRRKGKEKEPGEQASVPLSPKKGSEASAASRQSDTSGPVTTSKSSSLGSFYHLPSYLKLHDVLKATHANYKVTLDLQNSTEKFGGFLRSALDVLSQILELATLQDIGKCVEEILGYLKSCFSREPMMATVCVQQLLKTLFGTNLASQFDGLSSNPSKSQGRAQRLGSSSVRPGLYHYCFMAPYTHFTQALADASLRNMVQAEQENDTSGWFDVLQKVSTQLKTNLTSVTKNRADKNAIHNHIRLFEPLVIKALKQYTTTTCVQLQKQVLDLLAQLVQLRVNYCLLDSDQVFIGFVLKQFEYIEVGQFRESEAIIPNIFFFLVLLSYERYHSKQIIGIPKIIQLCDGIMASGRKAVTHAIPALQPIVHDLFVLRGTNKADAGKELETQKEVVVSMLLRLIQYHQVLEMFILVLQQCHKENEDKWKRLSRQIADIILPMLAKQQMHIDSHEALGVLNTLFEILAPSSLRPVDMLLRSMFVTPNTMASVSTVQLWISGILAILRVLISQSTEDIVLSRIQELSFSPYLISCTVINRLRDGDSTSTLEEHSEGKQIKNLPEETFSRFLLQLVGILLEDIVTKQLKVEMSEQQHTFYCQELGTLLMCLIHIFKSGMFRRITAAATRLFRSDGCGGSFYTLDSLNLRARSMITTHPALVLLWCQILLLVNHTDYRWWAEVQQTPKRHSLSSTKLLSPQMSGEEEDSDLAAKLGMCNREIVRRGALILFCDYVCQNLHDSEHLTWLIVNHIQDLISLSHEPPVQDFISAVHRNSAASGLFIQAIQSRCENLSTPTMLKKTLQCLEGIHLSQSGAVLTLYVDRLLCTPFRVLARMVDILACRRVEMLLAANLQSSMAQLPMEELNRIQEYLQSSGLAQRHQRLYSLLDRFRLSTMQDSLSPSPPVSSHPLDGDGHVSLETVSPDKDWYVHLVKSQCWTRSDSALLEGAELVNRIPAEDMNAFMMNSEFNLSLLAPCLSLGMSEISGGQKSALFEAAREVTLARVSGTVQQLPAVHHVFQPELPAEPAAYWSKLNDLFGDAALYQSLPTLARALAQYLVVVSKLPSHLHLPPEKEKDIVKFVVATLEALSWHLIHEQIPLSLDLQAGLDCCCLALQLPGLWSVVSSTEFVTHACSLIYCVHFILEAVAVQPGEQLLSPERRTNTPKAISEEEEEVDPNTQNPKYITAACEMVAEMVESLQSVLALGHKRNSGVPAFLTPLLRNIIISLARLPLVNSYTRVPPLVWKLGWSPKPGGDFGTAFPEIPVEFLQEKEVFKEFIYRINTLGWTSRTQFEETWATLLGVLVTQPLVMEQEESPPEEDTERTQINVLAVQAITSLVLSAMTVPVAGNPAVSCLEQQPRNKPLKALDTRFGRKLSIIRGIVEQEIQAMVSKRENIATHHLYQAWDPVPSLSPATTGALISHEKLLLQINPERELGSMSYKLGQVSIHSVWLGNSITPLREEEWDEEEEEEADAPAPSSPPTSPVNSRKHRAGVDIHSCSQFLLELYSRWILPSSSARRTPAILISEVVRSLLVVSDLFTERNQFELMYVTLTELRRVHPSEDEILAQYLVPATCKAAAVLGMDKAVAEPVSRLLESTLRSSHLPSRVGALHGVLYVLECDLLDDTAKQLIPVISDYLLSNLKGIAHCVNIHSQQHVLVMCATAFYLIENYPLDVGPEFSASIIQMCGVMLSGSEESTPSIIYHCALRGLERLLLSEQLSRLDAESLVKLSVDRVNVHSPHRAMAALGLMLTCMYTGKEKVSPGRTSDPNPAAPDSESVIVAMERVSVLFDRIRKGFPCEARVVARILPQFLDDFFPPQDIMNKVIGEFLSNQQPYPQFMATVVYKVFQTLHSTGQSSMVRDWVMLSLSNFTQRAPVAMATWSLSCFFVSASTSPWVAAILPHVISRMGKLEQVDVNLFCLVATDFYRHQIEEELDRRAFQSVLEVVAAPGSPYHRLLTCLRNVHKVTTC

[3] = molecular target: T2, huntingtin exon 1-thioredoxin (TRX) …; assay: SEC-MALS
[4] = molecular target: T1, huntingtin exon 1-thioredoxin (TRX) …; assay: SEC-MALS

T1 sequence (P42858 whole entry, looked up, change not shown, the tested form may be a part): as above

B1: 3B5H10 Fab (Fab, V domains shown)
VH: QIQLVQSGPELKKPGETVKISCKASGYTFTTYGMSWVKQAPGKGFEWMGWINTYSGVPTYVDDFKGRFAFSLETSASTAYLQINNLKNEDTAVYFCARGGDNYLWFAYWGQGTLVTVSA
VL: QLVLTQSSSASFSLGASAKLTCTLNSQHSTYTIEWYQQQPLKPPKYVMELKKDGSHSTGDGIPDRFSGSSSGADRYLSISNIQPEDEAIYICGVGDTIKEQFVYVFGGGTKVTVL
In the case of B1, the “stoichiometry N” value [1] is reported as 1 Fab:HD-16Q, the “N at 5 μM 3B5H10 Fab in the equilibration buffer (ratio with flat baseline)” value [2] is reported as ~2.6 Fab:HD-39Q and the “stoichiometry N” value [2] is reported as 3 Fab:HD-39Q. For the same binder, the “stoichiometry N” value [3] was > 1 3B5H10 Fab:HD-39Q and < 2 3B5H10 Fab:HD-39Q and the “stoichiometry N” value [4] was 1 3B5H10 Fab:HD-16Q.
